# Reference: patent publication US20250382354A1 (INSTITUTE FOR RESEARCH IN BIOMEDICINE IRB, published 2025)
# Legend:
# [1] = biological target: SARS-CoV-2 S of the Ancestral pseudovirus (pSARS-COV2-Strunc) (SARS-CoV-2 (ancestral), UniProt P0DTC2 14-1254); test: cell-based or functional assay
# [2] = biological target: C-terminally truncated SARS-CoV-2 S protein (pSARS-CoV2-Strunc), ancestral (SARS-CoV-2, UniProt P0DTC2 14-1273); test: cell-based or functional assay
# [3] = biological target: SADS FP peptide (SADS); test: peptide ELISA
# [4] = biological target: T1, HCoV-229E S ectodomain (HCoV-229E); test: ELISA on coated S
# T1 construct: range 17-1142
# [5] = biological target: HKU24 HR2 peptide (HKU24); test: peptide ELISA
Binder,Ancestral Pseudovirus IC50 [1] [µg/mL],Ancestral Pseudovirus IC50 [2] [µg/mL],EC50 [3] [µg/mL],EC50 [4] [µg/mL],EC50 [5] [µg/mL]
"rbd.038 (antibody, V domains shown) VH: QVQLVQSGAEVKKPGASVKVSCKASGYTFSGYYMHWVRQAPGQGLEWVGWISPTSGGTKYAQKFQGRVTMTRDTSITTVYMELNRLRSDDTAVYYCAREPFPYCTSDICHSNYFYYYAMDVWGQGTTVTVSS VL: QSALTQPPSASGSPGQSVTISCTGSSSDLGDHNYVSWYQQHPGKAPKVMIYEVSKRPSGVPDRFSGSKSGNTASLTVSGLQAEDEADYYCSSYAGSLYVFGTGTKVTVL",0.000552,–,–,–,–
"rbd.031 (antibody, V domains shown) VH: EVQLVESGGGVVQPGRSLRLSCAASGFTFKTYGMHWVRQAPGKGLEWVAVISYEGSNEYYAESVKGRFTISRDNSKNTLYLHMNSLRAEDTAVYYCAKGEYYYHSSTYYYLDYWGRGTLVTVSS VL: DIQMTQSPSTLSASVGDRVTITCRASQSISSWLAWYQQKPGKAPKVLIYDASSLQSGVPLRFSGSGSGTEFTLTISSLQPDDFATYYCQQYDTYWTFGQGTKVEIK",0.862,–,–,–,–
"fp.001 (antibody, V domains shown) VH: VQLVESGGGVVQPGRPLRLSCSGSGFIFSNYAMHWVRQAPGKGLEWVAIISFDARNKRYADSVEGRFTISRDNSKNILYLQMNSLRLEDSAVYFCARDLFLSDYDNGVYDPTRGGFDYWGQGTLVTVSS VL: EIVMTQSPATLSLSPGERATLSCRASQSVNNRLAWYQQKLGQPPRLLISGASTRATGIPARFTGSGSGTEFTLTISSLQSEDFAVYYCQQYHDWPLLSFGGGTKVEIK",–,2.19,0.0255,0.028,–
"fp.003 (antibody, V domains shown) VH: VQLVESGGGVVQPGTSLRLSCTASGFSFSNYAMHWVRQAPGKGLEWVAIISFDTRNKEFADSVKGRFSISRDNSKNSLNLQMNSLRPEDTGVYYCARDLFLSDYDSRGYEPSRGGFDYWGQGTLVTVSS VL: EIVMTQSPATLSVSPGERATLSCRASQSVSSSLAWYQQKLGQPPRLLIYGASTRATGIPARFSGSGSGTEFTLTISSLKSEDSAVYYCQQYNDWPLLSFGGGTKVEIK",–,9.26,0.0305,0.0443,–
"rbd.048 (antibody, V domains shown) VH: EVQLVESGGGLVQPGGSLRLSCAASGFTVSSNYMTWVRQAPGKGLEWVSVIYSGGSTFYTDSVKGRFTISRDNSKNTLYLQMNSLRAEDTAVYYCARDVVYYGMDVWGQGTTVTVSS VL: DIQMTQSPSSLSASVGDRVTITCRASQSISSYLNWYQQKPGKAPKLLIYAASSLQSGVPSRFSGSGSGTDFTLTISSLQPEDFATYYCQESYSNSPYTFGQGTKLEIK",0.00275,–,–,–,–
"hr2.017 (antibody, V domains shown) VH: EVQLVESGGGLVQPGGSLRLSCAVSGFAFSSSWMHWIRQAPGRGLVWVSRINRDGSTTDYADSVKGRFTISRDNAKATLYLQMNSLRAEDTAVYYCATMGFDYWGQGALVTVSS VL: DIVMTQSPDSLAVSLGERATINCKSSQNVLYSSNNKNHLSWYQQKPGQPPKLLIYWASTRKSGVPDRFSGSGSGTDFTLTINSLQAEDVAVYYCQQYFSTPNTFGQGTKLEIK",–,0.542,–,–,0.0176
"hr2.020 (antibody, V domains shown) VH: EVQLVQSGAEVKKPGESLKISCKGSGYRFASHWIGWVRQMPGKGLQWMGIIYPGDSDTKYSPSFQGQVTISADKSINTVYLHWTSLKASDTAVYYCARRPPHLDGGDSPIRFDHWGQGTLVTVSS VL: QSVLTQPPSASGTPGQRVTISCSGSRSNIGSNDVYWYQQFPGTAPKLLIYRNNQRPSGVPDRFSGSKSGTSASLAISGLRSEDEADYYCATWDDRLTGVFGGGTKLTVV",–,–,–,–,0.0329
"fp.010 (antibody, V domains shown) VH: EVQLLESGGGLVQPGGSLRLSCAASGFTFSTYAMNWVRQAPGKGLEWVSAISSSGLSTQYADSVRGRFTISRDTSKNTLYLHMNSLRAGDTAVYYCAKVEYSGYDPRGPFDSWGQGTLVTVSS VL: DIQMTQSPSTLSASVGDRVTITCRASQSISGWLAWYQQKPGRAPKLLIYKASSLERGVPSRFSGSGSGTEFTLTISSLQPDDFATYYCQEYSSYPLCTFGQGTKLEIK",–,–,0.0644,–,–
"rbd.045 (antibody, V domains shown) VH: QVQLQESGPGLVKPSETLSLTCTVSGGAFRSFFWTWIRQPPGKGLEWIGNIYYSGSTNYNPSLKSRVTISQDMSENQFSLKLSSVTAADTAVYYCARSQWLRGNFDHWGQGILVTVSS VL: NFMLTQPHSVSESPGKTVTISCTATSGYIASNYVQWYQQRPGSAPTTVIYEDNQRPSGVPDRFSGSIDSSSNSASLTISGLKPEDEADYYCQSFDTAYAVFGGGTQLTVL",0.00557,–,–,–,–
"rbd.043 (antibody, V domains shown) VH: QVQLVQSGAEVKKPGSSVKVSCKVSGGSFSNYGISWVRQAPGQGLEWMGGIIPLFGPADYAQKVQGRVTITADKSTSTAYMELRSLRSEDTAVYFCARGVEIVATIVGPLVREDHYYYYGMDVWGQGTTVTVSS VL: not shown",0.000573,–,–,–,–
"fp.008 (antibody, V domains shown) VH: VQLVESGGGVVQPGRSLRLSCRASGFRFNNYAMHWVRQAPGKGLEWVAIISYEARNEKYAASVKGRFSISRDNAKNTLYLQMNSLRPEDTAIYYCARDVFLSDYDQSGYDVTRGGFDYWGQGTLVTVSS VL: EIVMTQSPATLSVSPGESATLSCRASQSVSSSLAWYQHKFGQAPRLLIYGASTRATGIPDRFSGSGSGMEFTLTISSLQSEDVAIYYCQQYGDWPLVTFGGGTKVEIK",–,3.56,0.024,0.0482,–
"fp.002 (antibody, V domains shown) VH: VQLVESGGGVVQPGTSLRLSCAGSGFNFDNYAIHWVRQAPGQGLEWVAIISYEARNKKYAGSVTGRFSISRDNSKSMVYLQMDSLRGEDTAVYYCARDLFLSDYDRSGYDPTRGGFDLWGQGTLVTVSS VL: EIVMTQSPATLSVSPGERATLSCRASQSVSSSLAWYQHKLGQAPRLLIYGASTRATGIPGRFSGSGSGTEFTLTISSLQSEDVAIYYCQQYGDWPLVTFGGGTKVEIK",–,16.1,0.0252,0.04,–
"fp.006 (antibody, V domains shown) VH: VQLVESGGGVVQPGGSLRLSCAASGFNFNNYALHWVRQAPGKGLEWVAIISYEARNKKYGVSVMGRFSISRDNSKSIMYLEMNSLRVEDTGVYYCARDLFLSDYDRSGYDPTRGGFDHWGQGTLVTVSS VL: EIVMTQSPATLSVSPGERATLSCRASQSVSSSLAWYQHRFGQAPRLLISGASTRATGIPGRFSGSGSGTEFTLTISSLQSEDVAVYYCQQYGDWPLVTFGGGTKVEIK",–,–,0.0154,0.0349,–
"fp.009 (antibody, V domains shown) VH: VQLVESGGGVVQPGTSLTLSCEASGFTFSNYAMHWVRQAPGKGLEWVAIISFDTRNKKFAGSVQGRFSISRDNAKNSIYLQMNNLRPEDTGIYYCARDVFLSDYDSRGFDRTRGGFDYWGQGTLVTVSS VL: EIVMTQSPATLSVSPGEKATLSCRASESVGSSLAWYQQKLGQAPRLLIYGASTRATGIPARFSGSGSGAEFTLTISSLQSEDFAIYYCQQYGDWPLLTFGGGTKVEIK",–,0.873,0.0247,0.0285,–
"hr2.021 (antibody, V domains shown) VH: QVQLVQSGAEVKKPGASVKVSCKASEAIFSGSYLHWVRQAPGQGLEWMGIITPSGDKTFYAQRFQGRLTMTRDTSTNTLHMHLSGLNSEDTAMYYCARQADKGGWDYWGQGTLVTVSS VL: EIVLTQSPGTLSLSPGERATLSCRASQSVTSNYVAWYQQKPGQAPRLLIYGASTRATGIPDRFSGGGSGTDFTLTITRLEPEDFAVYYCQQYGSSPPTFTFGPGTKVDIK",–,3.02,–,–,0.0195
"hr2.024 (antibody, V domains shown) VH: QVQLVQSGAEVKKPGASVKVSCKASEDIFTDSYLHWVRQAPGQGLEWMGIITPSGDKTFYAQQFQGRLTMTRDPSTNTLYMFLSGLRSDDTAMYFCARQAEKGGWDYWGHGTLVTVSS VL: EIVLTQSPGTLSLSPGQRATLSCRSSQTITSNYLAWYQQRPGQAPRLLIYGASIRATGIPDRFSGSGSGTDFTLTISRLEPEDFAVYYCQQYGSSPPTFIFGPGTKVDIK",–,0.301,–,–,0.0218
"fp.011 (antibody, V domains shown) VH: EVQLLESGGGLVQPGGSLRLSCAGSGFTFNNYAMTWVRQAPGRGLEWVSAISGSGGSSHYADSVKGRFTITRDNSKNTLYLQMNSLRAEDTAVYYCAFIDYYSGWSYYYGLDVWGQGTTVTVSS VL: EIVLTQSPATLSLSPGERATLSCRASQGVRTYVAWYQQKPGQAPRLLIYDASNRATGIPARFSGSGSGTDFTLTISSLEPEDFAVYYCQQRYNWPLCSFGQGTKLEIK",–,–,0.0276,0.151,–
"fp.004 (antibody, V domains shown) VH: VQLVESGGGVVQPGTSLRLSCVASGFTFSNYAMHWVRQAPGKGLEWVAIISFDTRNTASAASVKGRFNISRDNSKNSLYLQMNSLRPEDTGVYYCARDLFLSDYDSRGYDPITGGFDCWGQGTLVTVSS VL: EIVMTQSPAALSVSPGEGATLSCRASQSVGSRLAWYQQKLGRPPRLLIYGASTRATGIPARFSGSGSGTEFTLTISSLQSEDFAVYYCQQYNDWPLLTFGGGTKVKIK",–,7.84,0.0276,0.037,–
"rbd.035 (antibody, V domains shown) VH: EVQLLESGGGLIEPGGSLRLSCAASGFPFNTFAMTWVRQPPGKGLEWVATISSRGDYTFYADFVKGRFSISRDNANNALWLDMSGLRAEDTALYYCAKGESGYDLYLYGLDLWGQGTTVTVSS VL: DIQMTQSPSSLSASVGDGVTITCRASQNINNYLSWYQKKAGKAPKLLIYGASTLHSGVPSRFSGSGSGTDFTLTISSLQPEDFASYYCQQNSPTPPWTFGQGTKVEIK",0.00152,–,–,–,–
"hr2.015 (antibody, V domains shown) VH: QVQLVQSGAEVKKPGASVKVSCKASGYTFSSYYVNWVRQAPGQGLEWLGIINRSGSSTIYAQKFQGRVTMTRDTSTSTVYLELSSLRSEDTAVYYCARDQDHALHWGQGTLVTVSS VL: QSVLTQPPSVSAAPGQKVTISCSGSSSNIGSNYVSWYQQLPGTAPKLLIYDNSERPSGIPDRFSGSRSGTSATLGITGLQTGDEADYYCGTWDTSLSAWVFGGGTKLTVL",–,3.83,–,–,0.0482
